Results reported in patent US20030103975A1.

Biological target: α4 laminin fragment G^919-1207 (SEQ ID NO:13) (human), Q16363
Experiment: solid-phase saturation binding ELISA: coated G^919-1207 at varying concentrations, soluble integrin at 5 ng/µl, detected with LM609

α4 laminin fragment G^919-1207 (SEQ ID NO:13) (human), Q16363, sequence (Q16363 926-1214 G1117S/P1119X limits assumed): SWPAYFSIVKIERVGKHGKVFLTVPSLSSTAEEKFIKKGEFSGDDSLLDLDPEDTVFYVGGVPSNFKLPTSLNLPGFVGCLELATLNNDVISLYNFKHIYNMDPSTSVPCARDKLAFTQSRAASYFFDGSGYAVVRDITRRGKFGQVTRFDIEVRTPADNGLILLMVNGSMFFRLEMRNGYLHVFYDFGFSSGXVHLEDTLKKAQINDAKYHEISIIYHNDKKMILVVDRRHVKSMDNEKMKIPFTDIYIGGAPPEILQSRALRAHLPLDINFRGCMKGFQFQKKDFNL

Kd: 4 nM
B1: soluble αvβ3 integrin heterodimer (Chemicon International), P06756 31-992; P05106 27-718 (receptor)
chain 1: FNLDVDSPAEYSGPEGSYFGFAVDFFVPSASSRMFLLVGAPKANTTQPGIVEGGQVLKCDWSSTRRCQPIEFDATGNRDYAKDDPLEFKSHQWFGASVRSKQDKILACAPLYHWRTEMKQEREPVGTCFLQDGTKTVEYAPCRSQDIDADGQGFCQGGFSIDFTKADRVLLGGPGSFYWQGQLISDQVAEIVSKYDPNVYSIKYNNQLATRTAQAIFDDSYLGYSVAVGDFNGDGIDDFVSGVPRAARTLGMVYIYDGKNMSSLYNFTGEQMAAYFGFSVAATDINGDDYADVFIGAPLFMDRGSDGKLQEVGQVSVSLQRASGDFQTTKLNGFEVFARFGSAIAPLGDLDQDGFNDIAIAAPYGGEDKKGIVYIFNGRSTGLNAVPSQILEGQWAARSMPPSFGYSMKGATDIDKNGYPDLIVGAFGVDRAILYRARPVITVNAGLEVYPSILNQDNKTCSLPGTALKVSCFNVRFCLKADGKGVLPRKLNFQVELLLDKLKQKGAIRRALFLYSRSPSHSKNMTISRGGLMQCEELIAYLRDESEFRDKLTPITIFMEYRLDYRTAADTTGLQPILNQFTPANISRQAHILLDCGEDNVCKPKLEVSVDSDQKKIYIGDDNPLTLIVKAQNQGEGAYEAELIVSIPLQADFIGVVRNNEALARLSCAFKTENQTRQVVCDLGNPMKAGTQLLAGLRFSVHQQSEMDTSVKFDLQIQSSNLFDKVSPVVSHKVDLAVLAAVEIRGVSSPDHVFLPIPNWEHKENPETEEDVGPVVQHIYELRNNGPSSFSKAMLHLQWPYKYNNNTLLYILHYDIDGPMNCTSDMEINPLRIKISSLQTTEKNDTVAGQGERDHLITKRDLALSEGDIHTLGCGVAQCLKIVCQVGRLDRGKSAILYVKSLLWTETFMNKENQNHSYSLKSSASFNVIEFPYKNLPIEDITNSTLVTTNVTWGIQPAPMPV
chain 2: GPNICTTRGVSSCQQCLAVSPMCAWCSDEALPLGSPRCDLKENLLKDNCAPESIEFPVSEARVLEDRPLSDKGSGDSSQVTQVSPQRIALRLRPDDSKNFSIQVRQVEDYPVDIYYLMDLSYSMKDDLWSIQNLGTKLATQMRKLTSNLRIGFGAFVDKPVSPYMYISPPEALENPCYDMKTTCLPMFGYKHVLTLTDQVTRFNEEVKKQSVSRNRDAPEGGFDAIMQATVCDEKIGWRNDASHLLVFTTDAKTHIALDGRLAGIVQPNDGQCHVGSDNHYSASTTMDYPSLGLMTEKLSQKNINLIFAVTENVVNLYQNYSELIPGTTVGVLSMDSSNVLQLIVDAYGKIRSKVELEVRDLPEELSLSFNATCLNNEVIPGLKSCMGLKIGDTVSFSIEAKVRGCPQEKEKSFTIKPVGFKDSLIVQVTFDCDCACQAQAEPNSHRCNNGNGTFECGVCRCGPGWLGSQCECSEEDYRPSQQDECSPREGQPVCSQRGECLCGQCVCHSSDFGKITGKYCECDDFSCVRYKGEMCSGHGQCSCGDCLCDSDWTGYYCNCTTRTDTCMSSNGLLCSGRGKCECGSCVCIQPGSYGDTCEKCPTCPDACTFKKECVECKKFDRGALHDENTCNRYCRDEIESVKELKDTGKDAVNCTYKNEDDCVVRFQYYEDSSGKSILYVVEEPECPKGPD
